The record followed here is publication PMC7144898 (Nucleic Acids Research, 2020).

The target of this assay is T1, Recombinant N-terminal (His)6-tagged P. abyssi ASH-Ski2, full length (Pyrococcus abyssi, UniProt Q9V2M1 1-855).
T1 sequence (looked up): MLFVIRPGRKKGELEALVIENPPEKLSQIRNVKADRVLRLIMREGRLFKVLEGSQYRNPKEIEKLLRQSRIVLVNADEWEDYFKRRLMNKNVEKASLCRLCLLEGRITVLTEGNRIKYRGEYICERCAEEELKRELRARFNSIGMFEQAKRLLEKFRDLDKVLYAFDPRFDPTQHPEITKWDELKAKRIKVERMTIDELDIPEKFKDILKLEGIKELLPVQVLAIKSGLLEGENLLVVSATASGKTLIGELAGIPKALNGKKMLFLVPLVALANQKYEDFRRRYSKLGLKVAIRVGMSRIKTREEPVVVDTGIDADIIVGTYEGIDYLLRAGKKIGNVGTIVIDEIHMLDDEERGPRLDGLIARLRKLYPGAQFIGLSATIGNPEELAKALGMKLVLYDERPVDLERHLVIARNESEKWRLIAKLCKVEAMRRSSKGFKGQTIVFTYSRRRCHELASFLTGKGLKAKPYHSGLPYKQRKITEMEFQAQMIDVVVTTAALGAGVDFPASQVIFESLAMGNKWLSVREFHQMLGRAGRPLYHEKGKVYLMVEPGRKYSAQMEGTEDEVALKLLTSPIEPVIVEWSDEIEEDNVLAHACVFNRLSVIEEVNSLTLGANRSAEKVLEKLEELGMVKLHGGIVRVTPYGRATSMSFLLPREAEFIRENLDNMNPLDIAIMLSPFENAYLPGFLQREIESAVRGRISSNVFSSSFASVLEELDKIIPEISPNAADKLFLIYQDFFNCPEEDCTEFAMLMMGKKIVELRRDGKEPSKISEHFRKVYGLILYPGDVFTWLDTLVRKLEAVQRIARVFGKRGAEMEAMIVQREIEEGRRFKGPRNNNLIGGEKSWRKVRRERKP
Nature of the assay: co-sedimentation.

B1: Recombinant aRNase J from P. abyssi with C-terminal (His)6-tag (enzyme, Pyrococcus abyssi, UniProt Q9V076 1-451, looked up)
chain: MWEEINMIKIYTLGGYEEVGKNMTAVEYNGEVVIVDMGIRLDRVLIHEDVEFQKMSSKDLRKLGAIPDDRPIRNKKVVAIALSHGHLDHIGAVGKLAPHYPDVPIYGTPYTIRLAKSEIKGEEYFEVTNPLYETNYGEIVQVSENLAIEFVQITHSIPQSSIVVIHTPEGAVVYACDYKFDNNHPYGERPDYKRLKELGKEGVKVLIAESTRVAEETKTPSEAVAKMLLEDFFLYEGMEADGLIATTFASHIARLQELIEIANKMGRQAIFIGRSLAKYTGIAKQLGLIKMKGSRVLRSPNAVSKVLKEVSQARENYLLIVTGHQGEPGAILTRMANGELYDIGPRDTVVFSAGVIPNPLNVAQRYALETKLRMKGVRMIKNLHVSGHASKEDHRYLIRMLNPEYIVPAHGEFRMLTHYAELAEEEGYMIGKEVFISRNGHVVEIPGSLEG
Consider B1, for which the binding result was “binds”.
